Test results reported in US20210361735A1, “MINIGASTRIN DERIVATES, IN PARTICULAR FOR USE IN CCK2 RECEPTOR POSITIVE TUMOUR DIAGNOSIS AND/OR TREATMENT” (PAUL SCHERRER INSTITUT, priority 2017, published 2021).
Numbered stars: 1 amine (or outer) side, 2 acyl side, 3 side chain; on linkers, the order of the positions; unused ones are H or OH. Square brackets hold non-standard residues; d marks the D form. Peptide text beside a SMILES is read from it. * marks the point of attachment. X1 = CCCC[C@@H](C(=O)[*:2])n1cc([C@H](Cc2c[nH]c3ccccc23)N[*:1])nn1; X4 = C[C@H](N[*:1])c1cn([C@@H](Cc2ccc(O)cc2)C(=O)[*:2])nn1; DOTA = O=C(O)CN1CCN(CC(=O)O)CCN(CC(=O)*)CCN(CC(=O)O)CC1; X3 = O=C([C@H](Cc1c[nH]c2ccccc12)n1cc(CN[*:1])nn1)[*:2]; X2 = O=C(Cn1cc([C@H](Cc2ccc(O)cc2)N[*:1])nn1)[*:2]; Nle = CCCC[C@H](N)C(=O)O

Experiments:
[1] = Fig. 4
Procedure: (§1) Table printed on a drawing sheet, Fig. 4
(§2) Footnotes: Significant improvement / Significant drawback
First reader's note: Light grey shading of a cell marks a significant improvement and dark grey shading a significant drawback; logD was measured at pH 7.4.

[2] = Blood plasma stability; assay type: in vitro ADME; conditions: human blood plasma, 37° C.; for at least more than 2 hours; FIG. 3
Procedure: The ^177Lu-labelled compounds were diluted with 0.9% NaCl to a concentration of 3.75 μM and incubated (375 pmol, 100 μL, 7.5-12 MBq) in nitrogen-flushed fresh human blood plasma (1.5 mL) at 37° C. At different time points (0.5, 1, 2, 4, 6 and 24 h) aliquots (75 μL) were taken and the proteins were precipitated in CH3CN (100 μL) and centrifuged (2 min, 14680 rpm, rt). The supernatant (75 μL) was diluted with water (75 μL) and analyzed by γ-HPLC.

[3] = biological target: CCK2R (Homo sapiens, UniProt P32239); assay: IC50 (nM); parameters: Human Medullary Thyroid Cancer cells (MZ-CRCl) expressing the CCK2R; endogenous in cells; host or cells: MZ-CRC1 human medullary thyroid cancer cells
Procedure: as §1
Head of the field: IC50 (nM)
as §2
First copying reader's note: Light grey shading of a cell marks a significant improvement and dark grey shading a significant drawback; logD was measured at pH 7.4.
Where the first naming reader finds the target: patent_title: MINIGASTRIN DERIVATES, IN […] FOR USE IN CCK2 RECEPTOR POSITIVE TUMOUR DIAGNOSIS AND/OR TREATMENT

[4] = tested on: CCK-2 receptor positive tumours; conditions: in vivo; cited from earlier work

Chain of CCK2R (P32239 whole entry, looked up): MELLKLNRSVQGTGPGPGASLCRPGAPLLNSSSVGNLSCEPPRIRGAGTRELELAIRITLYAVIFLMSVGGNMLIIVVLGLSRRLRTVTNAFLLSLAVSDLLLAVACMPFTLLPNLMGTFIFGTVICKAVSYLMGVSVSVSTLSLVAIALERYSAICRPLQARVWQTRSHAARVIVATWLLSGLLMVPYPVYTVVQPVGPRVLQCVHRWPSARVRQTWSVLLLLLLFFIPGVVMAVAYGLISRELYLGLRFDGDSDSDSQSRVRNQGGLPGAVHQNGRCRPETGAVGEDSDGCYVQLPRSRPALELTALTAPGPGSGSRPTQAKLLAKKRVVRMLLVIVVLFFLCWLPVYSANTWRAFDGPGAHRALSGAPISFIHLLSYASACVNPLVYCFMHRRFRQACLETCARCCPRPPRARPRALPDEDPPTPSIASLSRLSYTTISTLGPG

Row | Molecule | Plasma half live [1] [h] | other results
1 | CCCC[C@H](NC(=O)[C@H](Cc1c[nH]c2ccccc12)NC(=O)CNC(=O)[C@H](Cc1ccc(O)cc1)n1cc([C@H](C)NC(=O)[C@@H](CCC(=O)O)NC(=O)CN2CCN(CC(=O)O)CCN(CC(=O)O)CCN(CC(=O)O)CC2)nn1)C(=O)N[C@@H](CC(=O)O)C(=O)N[C@@H](Cc1ccccc1)C(N)=O [DOTA[Nle15, Ala11-(Tz)-Tyr12]-MG11] ({DOTA}-[dE][X4]GW[Nle]DF-NH2) | 16.7 | 
2 | CCCC[C@H](NC(=O)[C@H](Cc1c[nH]c2ccccc12)n1cc(CNC(=O)[C@H](Cc2ccc(O)cc2)NC(=O)[C@H](C)NC(=O)[C@@H](CCC(=O)O)NC(=O)CN2CCN(CC(=O)O)CCN(CC(=O)O)CCN(CC(=O)O)CC2)nn1)C(=O)N[C@@H](CC(=O)O)C(=O)N[C@@H](Cc1ccccc1)C(N)=O [DOTA[Nle15, Gly13-(Tz)-Trp14]-MG11] ({DOTA}-[dE]AY[X3][Nle]DF-NH2) | 4.3 | 
3 | CCCC[C@@H](C(=O)N[C@@H](CC(=O)O)C(=O)N[C@@H](Cc1ccccc1)C(N)=O)n1cc([C@H](Cc2c[nH]c3ccccc23)NC(=O)CNC(=O)[C@H](Cc2ccc(O)cc2)NC(=O)[C@H](C)NC(=O)[C@@H](CCC(=O)O)NC(=O)CN2CCN(CC(=O)O)CCN(CC(=O)O)CCN(CC(=O)O)CC2)nn1 [DOTA[Nle15, Trp14-(Tz)-Nle15]-MG11] ({DOTA}-[dE]AYG[X1]DF-NH2) | >24 | 
4 | CCCC[C@H](NC(=O)[C@H](Cc1c[nH]c2ccccc12)NC(=O)Cn1cc([C@H](Cc2ccc(O)cc2)NC(=O)[C@H](C)NC(=O)[C@@H](CCC(=O)O)NC(=O)CN2CCN(CC(=O)O)CCN(CC(=O)O)CCN(CC(=O)O)CC2)nn1)C(=O)N[C@@H](CC(=O)O)C(=O)N[C@@H](Cc1ccccc1)C(N)=O [DOTA[Nle15, Tyr^12-(Tz)-Gly^13]-MG11, DOTA[Nle15, Tyr12-ψ[Tz]-Gly13]-MG11] ({DOTA}-[dE]A[X2]W[Nle]DF-NH2) |  | peptides remaining stable in plasma [2]: more than 60%
5 | CCCC[C@H](NC(=O)[C@H](Cc1c[nH]c2ccccc12)NC(=O)CNC(=O)[C@H](Cc1ccc(O)cc1)NC(=O)[C@H](C)NC(=O)[C@@H](CCC(=O)O)NC(=O)CN1CCN(CC(=O)O)CCN(CC(=O)O)CCN(CC(=O)O)CC1)C(=O)N[C@@H](CC(=O)O)C(=O)N[C@@H](Cc1ccccc1)C(N)=O [DOTA[Nle15]-MG11, DOTA-DGlu-Ala-Tyr-Gly-Trp-Nle-Asp-Phe-NH2] ({DOTA}-[dE]AYGW[Nle]DF-NH2) |  | IC50 [3]: 16.1 nM
6 | DOTA-DGlu-DGlu-DGlu-DGlu-DGlu-DGlu-Ala-Tyr-Gly-Trp-Nle-Asp-Phe-NH2 [PP-F11N] |  | tumour-kidney-ratio [4]: excellent
